Columns and labels:
[1] = target: LRRK2^RCKW (purified for cryo-EM from His6-Z-TEV-LRRK2^RCKW); experiment: mass photometry; Refeyn Two MP; LRRK2^RCKW alone or with a 2.5-fold excess of DARPin E11; 20 mM Hepes pH 7.4, 150 mM NaCl, 2.5 mM MgCl2, 5% glycerol, 20 μM GDP, 0.5 mM TCEP
[2] = target: T1, biotinylated LRRK2^RCKW (LRRK2 residues 1327 to 2527) (UniProt Q5S007 1327-2527, biotin (biotinylated; site not stated)); experiment: BLI; Octet Red96, 25 °C; biotinylated LRRK2^RCKW on streptavidin biosensors; DARPin E11 15 to 1000 nM; 50 mM Hepes pH 8.0, 150 mM NaCl, 10 mM MgCl2, 5% glycerol, 0.1% BSA, 0.05% Tween 20, 500 μM GDP; Req fitted to a Langmuir model; details: both partners purified
T1 construct: Leucine rich repeat kinase 2 (LRRK2), C-terminal catalytic half with ROC GTPase, COR-A, COR-B, kinase and WD40 domains, residues 1327 to 2527; also called biotinylated LRRK2^RCKW protein; source: Sf9 (baculovirus, medium with 0.1 mM biotin), purified (Ni-NTA, TEV, Ni-NTA, S200 gel filtration); not shown: His6, N-terminal, cleaved
T1 sequence (looked up): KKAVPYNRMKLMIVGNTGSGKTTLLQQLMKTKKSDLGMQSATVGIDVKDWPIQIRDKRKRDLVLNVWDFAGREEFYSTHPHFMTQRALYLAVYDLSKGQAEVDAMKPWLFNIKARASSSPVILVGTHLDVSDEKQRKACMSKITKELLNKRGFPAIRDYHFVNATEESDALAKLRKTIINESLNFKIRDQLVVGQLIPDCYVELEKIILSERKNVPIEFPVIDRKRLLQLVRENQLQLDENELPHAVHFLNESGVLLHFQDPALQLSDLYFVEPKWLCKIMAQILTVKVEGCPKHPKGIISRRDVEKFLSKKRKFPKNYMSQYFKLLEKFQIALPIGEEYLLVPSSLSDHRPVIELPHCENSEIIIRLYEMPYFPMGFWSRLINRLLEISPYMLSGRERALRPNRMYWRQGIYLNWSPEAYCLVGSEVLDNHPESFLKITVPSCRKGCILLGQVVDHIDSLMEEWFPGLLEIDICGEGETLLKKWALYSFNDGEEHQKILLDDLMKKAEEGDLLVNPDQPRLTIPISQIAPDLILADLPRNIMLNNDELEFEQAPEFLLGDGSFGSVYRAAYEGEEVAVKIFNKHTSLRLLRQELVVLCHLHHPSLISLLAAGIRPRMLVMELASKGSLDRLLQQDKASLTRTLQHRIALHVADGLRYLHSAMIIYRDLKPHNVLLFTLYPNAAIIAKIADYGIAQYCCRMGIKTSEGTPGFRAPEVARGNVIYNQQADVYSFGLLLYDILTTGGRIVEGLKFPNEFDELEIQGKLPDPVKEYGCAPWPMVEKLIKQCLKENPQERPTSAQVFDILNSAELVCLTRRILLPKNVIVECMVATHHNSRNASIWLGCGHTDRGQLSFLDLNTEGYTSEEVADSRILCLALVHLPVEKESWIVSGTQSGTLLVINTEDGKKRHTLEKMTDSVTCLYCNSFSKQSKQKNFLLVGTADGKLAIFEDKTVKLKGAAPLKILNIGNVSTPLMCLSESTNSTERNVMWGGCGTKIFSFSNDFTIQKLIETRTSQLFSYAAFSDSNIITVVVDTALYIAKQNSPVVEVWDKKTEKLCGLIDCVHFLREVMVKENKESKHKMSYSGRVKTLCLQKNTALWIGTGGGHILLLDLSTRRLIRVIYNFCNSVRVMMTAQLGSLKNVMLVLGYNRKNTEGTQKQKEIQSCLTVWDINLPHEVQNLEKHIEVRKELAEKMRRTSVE

[3] = target: T1, biotinylated LRRK2^RCKW (LRRK2 residues …); experiment: SPR; Biacore T200; 850 RU biotinylated LRRK2^RCKW on a streptavidin-coated Series S CM5 chip; DARPin E11 in the mobile phase, 30 μl/min; 20 mM Hepes pH 7.4, 150 mM NaCl, 0.5 mM TCEP, 20 μM GDP, 2.5 mM MgCl2; plateau values fitted to a Langmuir model; details: both partners purified

stoichiometry N [1]: 1 | Kd [2]: 11 nM | Kd [3]: 70 nM | koff [3]: ~0.005 s⁻¹
B1: DARPin E11 (designed binder)
chain: MRGSHHHHHHHHGSDLGKKLLEAARAGQDDEVRILMANGADVNATDEAGVTPLHLAADSGHLEIVEVLLKTGADVNAWDHYGFTPLHLAAHVGHLEIVEVLLKAGADVNAQDHAGWTPLHLAALYGHLEIVEVLLKHGADVNAQDMWGETPFDLAIDNGNEDIAEVLQKAAKLNDYKDDDDK
notes: Designed ankyrin-repeat protein selected by ribosome display against LRRK2^RCKW; also called 008-807-2362-H9; 8xHis-DARPin E11-3xFLAG; source: E. coli Rosetta, purified (Ni-NTA, SEC)
